Values quoted from earlier work as cited in article PMC8469970.

Molecular target: Galectin-1 (Homo sapiens) (UniProt P09382)

Kd: 7 µM
Substance: Galectin-1 (from UniProt P09382)
